Assay results from the supplement of paper PMC10065799, “High-throughput profiling of sequence recognition by tyrosine kinases and SH2 domains using bacterial peptide display” (eLife, 2023).

Assays:
AncSZ = experiment: phosphorylation enrichment, bacterial display (enrichment ratio); higher = better substrate or ligand; peptides without Tyr show the background
EPHB1 = EPHB1 (UniProt P54762); experiment: as above
EPHB2 = EPHB2 (UniProt P29323); experiment: as above
FGFR1 = FGFR1 (UniProt P11362); experiment: as above
FGFR3 = FGFR3 (UniProt P22607); experiment: as above
Fer (mouse) = experiment: as above
Fes = Fes (UniProt P07332); experiment: as above
Fyn = Fyn (UniProt P06241); experiment: as above
Hck = Hck (UniProt P08631); experiment: as above
Jak2 = Jak2 (UniProt O60674); experiment: as above
MERTK = MERTK (UniProt Q12866); experiment: as above
c-Abl (mouse) = experiment: as above
c-Src = experiment: as above
Grb2 SH2 = Grb2 SH2 (UniProt P62993); experiment: SH2 binding enrichment of the phosphorylated peptide, bacterial display (enrichment ratio); higher = better substrate or ligand; peptides without Tyr show the background
SHP2-C SH2 = experiment: as above
c-Src SH2 = experiment: as above
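For SH2 binding enrichment of the phosphorylated peptide, bacterial display in this document: peptide library displayed on the E. coli surface as eCPX fusions, selected cells deep-sequenced, score is each peptide's frequency after selection divided by its frequency in the input.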
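For phosphorylation enrichment, bacterial display in this document: 11-residue human phosphosite peptides and single-mutation variants displayed on the E. coli surface, counted by deep sequencing, each peptide's frequency after selection divided by its frequency in the unselected input library; frequency after pTyr selection over input frequency; kinase dosed for 20-30% of maximal phosphorylation in three min.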

Fes, sequence (P07332 whole entry, looked up): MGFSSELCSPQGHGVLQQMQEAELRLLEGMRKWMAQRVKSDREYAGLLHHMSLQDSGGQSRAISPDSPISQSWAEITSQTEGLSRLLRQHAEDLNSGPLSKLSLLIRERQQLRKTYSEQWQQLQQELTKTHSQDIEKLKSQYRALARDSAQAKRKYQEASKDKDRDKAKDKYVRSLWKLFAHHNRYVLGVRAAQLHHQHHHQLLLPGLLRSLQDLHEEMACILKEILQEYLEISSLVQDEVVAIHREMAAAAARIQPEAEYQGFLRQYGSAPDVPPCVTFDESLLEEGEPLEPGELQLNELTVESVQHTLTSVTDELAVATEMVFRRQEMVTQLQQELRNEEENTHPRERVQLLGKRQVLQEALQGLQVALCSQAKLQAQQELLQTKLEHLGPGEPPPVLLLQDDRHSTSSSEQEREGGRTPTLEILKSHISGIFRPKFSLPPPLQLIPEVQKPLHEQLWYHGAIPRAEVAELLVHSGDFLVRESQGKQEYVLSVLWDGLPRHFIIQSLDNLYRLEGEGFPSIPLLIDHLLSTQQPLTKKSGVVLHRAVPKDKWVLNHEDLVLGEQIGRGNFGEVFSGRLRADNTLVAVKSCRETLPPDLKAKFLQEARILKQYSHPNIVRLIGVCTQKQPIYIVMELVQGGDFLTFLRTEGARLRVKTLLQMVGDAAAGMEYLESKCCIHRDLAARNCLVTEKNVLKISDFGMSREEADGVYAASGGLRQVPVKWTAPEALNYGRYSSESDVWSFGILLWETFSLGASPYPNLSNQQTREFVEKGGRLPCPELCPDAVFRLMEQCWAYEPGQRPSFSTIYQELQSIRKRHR
FGFR1, sequence (P11362 whole entry, looked up): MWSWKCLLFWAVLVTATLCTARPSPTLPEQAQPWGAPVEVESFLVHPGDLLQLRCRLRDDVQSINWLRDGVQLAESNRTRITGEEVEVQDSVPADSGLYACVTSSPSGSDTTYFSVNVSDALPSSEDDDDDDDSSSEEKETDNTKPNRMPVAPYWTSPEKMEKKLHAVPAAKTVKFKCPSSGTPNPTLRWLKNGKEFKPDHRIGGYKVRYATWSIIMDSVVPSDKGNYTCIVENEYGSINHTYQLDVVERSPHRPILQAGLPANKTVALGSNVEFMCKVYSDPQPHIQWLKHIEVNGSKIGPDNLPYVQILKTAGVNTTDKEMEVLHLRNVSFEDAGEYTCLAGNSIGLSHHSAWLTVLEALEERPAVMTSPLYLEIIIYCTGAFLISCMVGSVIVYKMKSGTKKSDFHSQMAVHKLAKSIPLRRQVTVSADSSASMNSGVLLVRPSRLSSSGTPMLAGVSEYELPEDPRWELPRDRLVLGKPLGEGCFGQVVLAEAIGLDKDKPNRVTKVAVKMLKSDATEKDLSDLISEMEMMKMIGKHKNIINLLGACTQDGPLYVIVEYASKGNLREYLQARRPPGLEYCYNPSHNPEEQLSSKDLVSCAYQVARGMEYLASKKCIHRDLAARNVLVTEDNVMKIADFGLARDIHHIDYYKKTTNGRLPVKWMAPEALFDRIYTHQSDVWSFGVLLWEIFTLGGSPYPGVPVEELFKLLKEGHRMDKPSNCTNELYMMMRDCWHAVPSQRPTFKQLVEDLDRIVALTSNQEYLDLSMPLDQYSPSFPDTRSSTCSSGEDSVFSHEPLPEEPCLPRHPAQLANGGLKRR
EPHB2, sequence (P29323 whole entry, looked up): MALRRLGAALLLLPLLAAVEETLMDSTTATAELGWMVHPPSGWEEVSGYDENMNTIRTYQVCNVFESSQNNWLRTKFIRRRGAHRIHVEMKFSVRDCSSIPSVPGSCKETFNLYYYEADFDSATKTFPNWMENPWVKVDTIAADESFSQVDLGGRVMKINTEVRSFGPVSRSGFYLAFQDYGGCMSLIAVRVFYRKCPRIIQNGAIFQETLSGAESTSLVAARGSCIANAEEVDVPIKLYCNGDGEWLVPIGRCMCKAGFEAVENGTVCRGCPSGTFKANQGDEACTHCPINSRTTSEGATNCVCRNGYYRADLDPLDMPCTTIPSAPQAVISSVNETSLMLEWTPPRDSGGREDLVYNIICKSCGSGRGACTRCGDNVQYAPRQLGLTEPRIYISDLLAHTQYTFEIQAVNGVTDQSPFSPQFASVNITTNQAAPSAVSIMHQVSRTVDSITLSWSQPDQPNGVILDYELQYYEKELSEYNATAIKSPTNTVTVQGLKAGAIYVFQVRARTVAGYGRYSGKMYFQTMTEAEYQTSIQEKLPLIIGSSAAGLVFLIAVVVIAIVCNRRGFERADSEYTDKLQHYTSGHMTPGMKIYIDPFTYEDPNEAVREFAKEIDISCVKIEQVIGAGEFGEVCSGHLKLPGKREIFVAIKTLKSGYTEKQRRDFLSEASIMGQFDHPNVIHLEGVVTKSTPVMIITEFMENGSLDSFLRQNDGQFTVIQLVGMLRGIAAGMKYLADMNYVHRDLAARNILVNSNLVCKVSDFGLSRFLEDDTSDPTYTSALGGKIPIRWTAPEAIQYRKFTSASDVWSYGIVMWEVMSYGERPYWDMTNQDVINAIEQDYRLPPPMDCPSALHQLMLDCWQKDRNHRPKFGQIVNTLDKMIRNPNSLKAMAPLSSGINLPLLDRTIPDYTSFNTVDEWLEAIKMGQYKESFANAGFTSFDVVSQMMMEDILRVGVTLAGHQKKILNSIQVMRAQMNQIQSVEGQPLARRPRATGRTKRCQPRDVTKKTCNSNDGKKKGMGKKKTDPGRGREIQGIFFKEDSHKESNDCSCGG
EPHB1, sequence (P54762 whole entry, looked up): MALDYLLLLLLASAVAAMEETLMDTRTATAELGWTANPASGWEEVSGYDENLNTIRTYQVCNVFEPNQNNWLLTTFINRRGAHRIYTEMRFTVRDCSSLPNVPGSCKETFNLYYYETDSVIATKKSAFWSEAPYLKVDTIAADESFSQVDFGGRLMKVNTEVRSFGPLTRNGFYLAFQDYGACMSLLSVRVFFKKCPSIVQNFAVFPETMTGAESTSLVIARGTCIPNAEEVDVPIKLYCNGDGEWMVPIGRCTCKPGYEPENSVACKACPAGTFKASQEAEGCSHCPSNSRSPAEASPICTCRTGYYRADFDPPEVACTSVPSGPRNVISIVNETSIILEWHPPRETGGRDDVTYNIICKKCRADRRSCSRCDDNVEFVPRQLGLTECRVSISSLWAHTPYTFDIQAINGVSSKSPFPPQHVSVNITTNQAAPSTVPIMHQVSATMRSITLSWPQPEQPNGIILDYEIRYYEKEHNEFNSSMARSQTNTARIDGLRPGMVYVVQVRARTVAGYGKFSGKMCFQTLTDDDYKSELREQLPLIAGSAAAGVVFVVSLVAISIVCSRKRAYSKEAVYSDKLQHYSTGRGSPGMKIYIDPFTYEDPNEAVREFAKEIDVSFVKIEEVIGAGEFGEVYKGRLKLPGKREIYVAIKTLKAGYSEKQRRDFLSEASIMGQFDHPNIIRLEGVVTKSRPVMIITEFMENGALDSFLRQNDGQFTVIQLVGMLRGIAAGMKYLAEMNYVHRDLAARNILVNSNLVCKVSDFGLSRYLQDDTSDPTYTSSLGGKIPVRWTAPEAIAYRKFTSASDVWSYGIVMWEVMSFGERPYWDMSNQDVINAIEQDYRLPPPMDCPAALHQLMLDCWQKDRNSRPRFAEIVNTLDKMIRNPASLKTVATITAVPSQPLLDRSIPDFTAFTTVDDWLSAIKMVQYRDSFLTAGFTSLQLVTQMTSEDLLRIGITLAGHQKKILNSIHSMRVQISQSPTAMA
Hck, sequence (P08631 whole entry, looked up): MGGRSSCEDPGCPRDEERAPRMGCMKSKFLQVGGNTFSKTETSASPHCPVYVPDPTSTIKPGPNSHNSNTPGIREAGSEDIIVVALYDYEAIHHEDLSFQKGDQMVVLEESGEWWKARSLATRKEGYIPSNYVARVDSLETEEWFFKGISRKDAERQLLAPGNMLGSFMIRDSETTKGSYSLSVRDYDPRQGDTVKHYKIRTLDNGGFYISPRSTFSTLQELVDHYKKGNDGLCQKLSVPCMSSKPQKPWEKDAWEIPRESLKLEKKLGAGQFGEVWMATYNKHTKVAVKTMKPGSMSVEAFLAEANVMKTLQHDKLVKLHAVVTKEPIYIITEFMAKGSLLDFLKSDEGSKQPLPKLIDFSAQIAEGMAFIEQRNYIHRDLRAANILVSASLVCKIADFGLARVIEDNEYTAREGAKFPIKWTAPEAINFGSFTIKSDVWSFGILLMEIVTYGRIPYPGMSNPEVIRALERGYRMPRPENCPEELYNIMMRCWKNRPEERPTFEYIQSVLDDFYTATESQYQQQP
FGFR3, sequence (P22607 whole entry, looked up): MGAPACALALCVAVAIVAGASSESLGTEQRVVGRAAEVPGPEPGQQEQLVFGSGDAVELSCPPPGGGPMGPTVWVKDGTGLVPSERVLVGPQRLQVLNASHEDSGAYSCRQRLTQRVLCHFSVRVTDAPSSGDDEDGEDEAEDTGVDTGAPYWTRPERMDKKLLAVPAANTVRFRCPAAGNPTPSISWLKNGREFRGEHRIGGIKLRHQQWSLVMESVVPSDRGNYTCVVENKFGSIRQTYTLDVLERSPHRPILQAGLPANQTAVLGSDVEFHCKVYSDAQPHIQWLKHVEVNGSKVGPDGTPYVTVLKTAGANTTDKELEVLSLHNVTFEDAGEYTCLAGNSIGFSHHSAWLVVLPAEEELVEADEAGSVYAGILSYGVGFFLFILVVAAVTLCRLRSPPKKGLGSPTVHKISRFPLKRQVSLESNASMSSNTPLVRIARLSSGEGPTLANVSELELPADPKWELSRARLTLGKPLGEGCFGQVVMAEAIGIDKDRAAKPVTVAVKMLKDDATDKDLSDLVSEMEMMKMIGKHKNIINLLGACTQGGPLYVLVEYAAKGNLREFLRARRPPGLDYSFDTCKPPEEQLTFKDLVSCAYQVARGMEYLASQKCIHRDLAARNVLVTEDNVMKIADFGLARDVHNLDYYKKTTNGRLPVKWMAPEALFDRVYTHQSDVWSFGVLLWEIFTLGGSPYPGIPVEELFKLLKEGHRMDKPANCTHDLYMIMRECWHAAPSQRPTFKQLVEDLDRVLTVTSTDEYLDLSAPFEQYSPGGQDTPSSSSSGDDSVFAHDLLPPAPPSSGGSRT

| Sequence | SH2 binding enrichment (Grb2 SH2) | SH2 binding enrichment (SHP2-C SH2) | SH2 binding enrichment (c-Src SH2) | phosphorylation enrichment (AncSZ) | phosphorylation enrichment (EPHB1) | phosphorylation enrichment (EPHB2) | phosphorylation enrichment (FGFR1) | phosphorylation enrichment (FGFR3) | phosphorylation enrichment (Fer (mouse)) | phosphorylation enrichment (Fes) | phosphorylation enrichment (Fyn) | phosphorylation enrichment (Hck) | phosphorylation enrichment (Jak2) | phosphorylation enrichment (MERTK) | phosphorylation enrichment (c-Abl (mouse)) | phosphorylation enrichment (c-Src) |
| --- | --- | --- | --- | --- | --- | --- | --- | --- | --- | --- | --- | --- | --- | --- | --- | --- |
| DSFATYFRRVL [H2BW1_Y84] | 0.797 | 0.584 | 0.373 | 1.35 | 0.607 | 0.677 | 0.496 | 0.703 | 0.426 | 1.2 | 0.472 | 0.82 | 1 | 0.448 | 0.798 | 0.532 |
| DSRRDYVSQFE [APOA1_Y53_G50R] | 0.803 | 0.524 | 0.531 | 0.762 | 0.456 | 0.447 | 0.542 | 0.503 | 0.387 | 0.709 | 0.409 | 0.478 | 0.645 | 0.464 | 0.567 | 0.43 |
| DTKDDYSALSV [IL17RB_Y457_N458S] | 0.956 | 0.771 | 0.609 | 1.05 | 0.627 | 0.663 | 0.715 | 0.828 | 0.642 | 1.09 | 0.56 | 0.661 | 0.928 | 0.441 | 0.815 | 0.473 |
| DVFVSYDFGKS [SORL1_Y139_YF] | 0.863 | 0.641 | 0.464 | 0.939 | 0.452 | 0.595 | 0.416 | 0.598 | 0.485 | 0.907 | 0.383 | 0.636 | 0.906 | 0.437 | 0.78 | 0.468 |
| DYYDLYGGEKF [PTPN11_Y66] | 1.21 | 0.68 | 0.734 | 2.92 | 6.42 | 6.92 | 13.4 | 12.9 | 1.61 | 1.2 | 5.73 | 5.08 | 2.7 | 3.7 | 0.74 | 4.69 |
| EAAFVYVISSA [WNT4_Y113_A114V] | 0.735 | 0.76 | 0.39 | 1.32 | 0.684 | 0.656 | 0.496 | 1.09 | 0.561 | 1.45 | 0.606 | 0.65 | 1.33 | 0.477 | 0.847 | 0.631 |
| EADRKYEEVAH [TPM3_Y163_R168H] | 1.01 | 0.626 | 20.4 | 1 | 0.587 | 0.423 | 0.493 | 0.633 | 0.521 | 1.04 | 0.506 | 0.531 | 0.938 | 0.474 | 0.703 | 0.421 |
| EAVLHYKHQNQ [MTOR_Y1804] | 0.904 | 0.549 | 0.677 | 0.632 | 0.405 | 0.403 | 0.338 | 0.453 | 0.492 | 0.799 | 0.428 | 0.37 | 0.641 | 0.363 | 0.589 | 0.364 |
| EDKSIYRRGAR [PRKCI_Y125] | 0.713 | 0.594 | 0.409 | 0.674 | 0.315 | 0.425 | 0.435 | 0.696 | 0.356 | 0.669 | 0.351 | 0.429 | 0.614 | 0.621 | 0.644 | 0.593 |
| EEEYEYMNRRR [ERBB3_Y1199_D1194E] | 0.777 | 0.618 | 0.605 | 1.15 | 0.324 | 0.402 | 0.429 | 0.583 | 0.342 | 0.804 | 0.332 | 0.546 | 0.882 | 0.356 | 0.329 | 0.36 |
| EEGNPYFSSAR [MCCC2_Y520_YF] | 0.769 | 0.627 | 0.51 | 1.01 | 0.446 | 0.623 | 0.461 | 0.648 | 0.43 | 0.966 | 0.61 | 0.638 | 0.818 | 0.462 | 0.796 | 1.15 |
| EEVKAYLDFGE [CHAC2_Y78_R82G] | 0.73 | 0.59 | 0.383 | 1.3 | 0.719 | 0.535 | 0.473 | 0.942 | 0.558 | 1.32 | 0.448 | 0.564 | 1.62 | 0.422 | 0.944 | 0.574 |
| EFGEVYKGMLK [EPHA2_Y628] | 1.11 | 0.838 | 0.553 | 0.503 | 0.343 | 0.441 | 0.439 | 0.526 | 0.411 | 0.579 | 0.422 | 0.454 | 0.394 | 0.367 | 0.377 | 0.481 |
| EFISECCGEII [EZH2_Y641_Y641C] | 0.954 | 0.739 | 0.501 | 1.27 | 0.672 | 0.695 | 0.723 | 0.724 | 0.508 | 1.18 | 0.498 | 0.55 | 1.07 | 0.503 | 1.24 | 0.472 |
| EFNINYNNELP [THG1L_Y228] | 0.774 | 0.839 | 0.55 | 0.734 | 0.383 | 0.516 | 0.488 | 0.568 | 0.38 | 0.829 | 0.468 | 0.429 | 1.07 | 0.341 | 0.444 | 0.354 |
| EFTPLYPMLFG [SCLY_Y280] | 0.993 | 4.07 | 0.504 | 1.01 | 0.59 | 0.695 | 12.8 | 9.26 | 0.458 | 1.12 | 0.547 | 0.515 | 1.64 | 2.6 | 0.849 | 0.475 |
| EGGFAYVPLKD [PRIM2_Y208_D204G] | 0.637 | 0.436 | 0.468 | 1.19 | 0.466 | 0.567 | 0.399 | 0.497 | 0.379 | 1.05 | 0.369 | 0.404 | 1.12 | 0.371 | 0.699 | 0.419 |
| EGTGHYLCNAC [GATA5_Y208_D203E] | 1.09 | 0.81 | 0.445 | 0.524 | 0.354 | 0.375 | 0.462 | 0.566 | 0.378 | 0.57 | 0.411 | 0.352 | 0.505 | 0.54 | 0.525 | 0.395 |

More lines, main results first:

| SH2 binding enrichment (Grb2 SH2) | SH2 binding enrichment (SHP2-C SH2) | SH2 binding enrichment (c-Src SH2) | Sequence | phosphorylation enrichment (AncSZ) | phosphorylation enrichment (EPHB1) | phosphorylation enrichment (EPHB2) | phosphorylation enrichment (FGFR1) | phosphorylation enrichment (FGFR3) | phosphorylation enrichment (Fer (mouse)) | phosphorylation enrichment (Fes) | phosphorylation enrichment (Fyn) | phosphorylation enrichment (Hck) | phosphorylation enrichment (Jak2) | phosphorylation enrichment (MERTK) | phosphorylation enrichment (c-Abl (mouse)) | phosphorylation enrichment (c-Src) |
| --- | --- | --- | --- | --- | --- | --- | --- | --- | --- | --- | --- | --- | --- | --- | --- | --- |
| 0.939 | 1.18 | 0.552 | DSILVYQRKEQ [USH2A_Y1909_G1911R] | 0.636 | 0.455 | 0.546 | 0.517 | 0.579 | 0.487 | 0.744 | 0.506 | 0.55 | 0.7 | 0.475 | 0.55 | 0.626 |
| 0.842 | 0.884 | 0.52 | DVFLKHLNFAT [PDE6B_Y212_Y212H] | 0.785 | 0.547 | 0.545 | 0.483 | 0.66 | 0.414 | 0.914 | 0.507 | 0.478 | 0.799 | 0.466 | 0.552 | 0.374 |
| 1 | 0.693 | 0.403 | DVLEFCNSKKT [PAK1_Y131_Y131C] | 0.83 | 0.459 | 0.483 | 0.428 | 0.581 | 0.436 | 0.861 | 0.423 | 0.401 | 0.806 | 0.433 | 0.532 | 0.535 |
| 1 | 1.75 | 1.52 | EACPSYSHVVL [CHST6_Y168_R166P] | 0.7 | 0.492 | 0.521 | 0.538 | 0.51 | 6 | 0.702 | 0.411 | 0.463 | 0.527 | 0.486 | 0.54 | 0.507 |
| 0.866 | 0.567 | 0.516 | EAVKNYTDKRG [PBRM1_Y672] | 0.56 | 0.484 | 0.498 | 0.418 | 0.459 | 0.41 | 0.653 | 0.421 | 0.38 | 0.56 | 0.478 | 0.489 | 0.433 |
| 0.891 | 0.833 | 0.525 | EDGRLYAVKRS [PKMYT1_Y136] | 0.753 | 0.417 | 0.496 | 0.465 | 0.633 | 0.444 | 0.856 | 0.486 | 0.612 | 0.728 | 0.433 | 0.692 | 0.485 |
| 0.85 | 0.73 | 0.511 | EDNPEYMRLRN [ADD2_Y31_D28N] | 1.09 | 0.518 | 0.515 | 0.547 | 0.653 | 0.447 | 0.969 | 0.444 | 0.489 | 1.05 | 0.408 | 0.713 | 0.459 |
| 0.871 | 14 | 9.68 | EELLRYAIVTP [POC5_Y37_H36R] | 0.928 | 0.669 | 0.637 | 0.514 | 0.615 | 0.6 | 0.922 | 0.456 | 0.439 | 0.867 | 3.32 | 0.62 | 0.444 |
| 8.42 | 0.571 | 0.516 | EERKTYVNTTL [TEK_Y1102] | 0.83 | 0.526 | 0.519 | 0.464 | 0.586 | 0.551 | 0.977 | 0.45 | 0.48 | 0.983 | 0.498 | 0.779 | 0.446 |
| 0.674 | 0.515 | 0.494 | EFFDGYWEFSV [ITGA2B_Y265_G267E_YF] | 1.98 | 0.709 | 0.577 | 8.09 | 6.69 | 0.515 | 1.55 | 3.4 | 2.29 | 3.11 | 0.631 | 1.19 | 5.58 |
| 1.27 | 0.741 | 0.667 | EFQLPYFNTVP [BMPR1A_Y457_M460T_YF] | 0.879 | 0.523 | 0.549 | 0.682 | 0.541 | 0.423 | 0.935 | 0.454 | 0.523 | 1.08 | 0.454 | 0.615 | 1.26 |
